Results taken from IntAct's records for PubMed 19696174.

B1: Age-related maculopathy susceptibility protein 2 (Homo sapiens), P0C7Q2 (parent)
chain: MLRLYPGPMVTEAEGKGGPEMASLSSSVVPVSFISTLRESVLDPGVGGEGASDKQRSKLSLSHSMIPAAKIHTELCLPAFFSPAGTQRRFQQPQHHLTLSIIHTAAR
partner: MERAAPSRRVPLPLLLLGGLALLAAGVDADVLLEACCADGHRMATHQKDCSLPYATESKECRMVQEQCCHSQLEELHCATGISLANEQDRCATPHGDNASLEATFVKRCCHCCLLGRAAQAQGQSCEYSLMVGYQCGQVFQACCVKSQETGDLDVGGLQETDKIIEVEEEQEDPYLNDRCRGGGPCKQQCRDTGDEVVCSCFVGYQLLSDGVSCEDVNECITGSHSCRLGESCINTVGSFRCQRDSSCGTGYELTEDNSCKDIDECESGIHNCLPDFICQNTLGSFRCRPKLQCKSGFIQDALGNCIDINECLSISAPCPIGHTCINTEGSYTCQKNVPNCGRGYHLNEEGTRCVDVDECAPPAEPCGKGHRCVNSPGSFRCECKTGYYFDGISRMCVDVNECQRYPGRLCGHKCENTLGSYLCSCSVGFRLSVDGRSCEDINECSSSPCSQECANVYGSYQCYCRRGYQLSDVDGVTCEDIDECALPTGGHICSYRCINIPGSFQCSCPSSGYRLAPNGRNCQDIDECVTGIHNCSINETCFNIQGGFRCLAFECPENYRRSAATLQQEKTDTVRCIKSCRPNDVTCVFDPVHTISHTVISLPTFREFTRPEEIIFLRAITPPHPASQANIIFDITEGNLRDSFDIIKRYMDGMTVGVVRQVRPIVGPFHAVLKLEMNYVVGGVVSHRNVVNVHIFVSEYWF
B2: Age-related maculopathy susceptibility protein 2 (Homo sapiens), P0C7Q2 (parent)
chain: B1 chain

Experiments:
[1] = variants of: B1; conditions: with fbln1_human FBLN1, P23142
[2] = variants of: B2; conditions: with psg11_human PSG11, Q9UQ72
Chain of psg11_human PSG11, Q9UQ72 (Q9UQ72 whole entry): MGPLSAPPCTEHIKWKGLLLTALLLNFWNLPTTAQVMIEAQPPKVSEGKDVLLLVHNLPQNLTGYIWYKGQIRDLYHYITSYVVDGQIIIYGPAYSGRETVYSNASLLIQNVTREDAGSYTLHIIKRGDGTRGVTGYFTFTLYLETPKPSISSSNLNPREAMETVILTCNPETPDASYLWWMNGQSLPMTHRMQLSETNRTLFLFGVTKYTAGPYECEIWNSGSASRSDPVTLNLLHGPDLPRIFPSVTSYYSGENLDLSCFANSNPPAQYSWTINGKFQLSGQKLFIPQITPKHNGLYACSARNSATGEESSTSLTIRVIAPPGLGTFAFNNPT

[3] = variants of: B2; conditions: with co1a1_human COL1A1, P02452
Chain of co1a1_human COL1A1, P02452 (P02452 whole entry): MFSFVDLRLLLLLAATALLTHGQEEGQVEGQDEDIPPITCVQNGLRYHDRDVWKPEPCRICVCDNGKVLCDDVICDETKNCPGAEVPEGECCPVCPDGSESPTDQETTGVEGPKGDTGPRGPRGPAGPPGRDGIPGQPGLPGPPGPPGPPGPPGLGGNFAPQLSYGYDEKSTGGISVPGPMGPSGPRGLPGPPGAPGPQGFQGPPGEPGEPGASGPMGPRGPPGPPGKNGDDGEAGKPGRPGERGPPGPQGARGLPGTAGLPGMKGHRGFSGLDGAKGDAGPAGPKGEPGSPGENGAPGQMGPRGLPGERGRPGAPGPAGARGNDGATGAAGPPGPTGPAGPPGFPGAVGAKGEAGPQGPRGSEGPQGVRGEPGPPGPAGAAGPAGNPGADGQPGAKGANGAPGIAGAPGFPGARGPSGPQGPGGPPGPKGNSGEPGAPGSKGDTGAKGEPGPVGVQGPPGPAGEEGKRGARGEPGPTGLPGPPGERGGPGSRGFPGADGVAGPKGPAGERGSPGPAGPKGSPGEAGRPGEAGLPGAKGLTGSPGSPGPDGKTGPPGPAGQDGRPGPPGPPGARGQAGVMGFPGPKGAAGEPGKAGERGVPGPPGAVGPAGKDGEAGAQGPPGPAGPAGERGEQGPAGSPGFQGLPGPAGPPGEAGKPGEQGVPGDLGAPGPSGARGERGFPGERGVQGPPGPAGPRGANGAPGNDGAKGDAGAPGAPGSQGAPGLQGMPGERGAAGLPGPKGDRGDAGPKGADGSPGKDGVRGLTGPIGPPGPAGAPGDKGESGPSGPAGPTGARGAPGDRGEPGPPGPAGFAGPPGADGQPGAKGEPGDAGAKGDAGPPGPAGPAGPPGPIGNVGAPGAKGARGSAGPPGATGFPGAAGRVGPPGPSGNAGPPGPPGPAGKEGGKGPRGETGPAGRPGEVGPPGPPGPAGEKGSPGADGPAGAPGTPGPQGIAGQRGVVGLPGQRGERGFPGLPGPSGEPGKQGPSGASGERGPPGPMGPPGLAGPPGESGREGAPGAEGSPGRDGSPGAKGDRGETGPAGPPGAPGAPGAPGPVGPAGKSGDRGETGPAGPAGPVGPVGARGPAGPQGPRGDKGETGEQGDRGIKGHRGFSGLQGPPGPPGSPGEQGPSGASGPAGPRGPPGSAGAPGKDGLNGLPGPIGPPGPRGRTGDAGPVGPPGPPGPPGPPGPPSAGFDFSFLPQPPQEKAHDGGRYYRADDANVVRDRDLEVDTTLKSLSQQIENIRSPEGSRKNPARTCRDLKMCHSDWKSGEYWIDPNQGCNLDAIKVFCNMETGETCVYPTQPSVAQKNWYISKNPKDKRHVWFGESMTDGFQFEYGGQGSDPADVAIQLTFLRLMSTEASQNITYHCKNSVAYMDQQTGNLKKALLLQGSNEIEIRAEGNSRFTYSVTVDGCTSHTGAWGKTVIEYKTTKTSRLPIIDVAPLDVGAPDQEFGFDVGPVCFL

[4] = variants of: B2; conditions: with finc_human FN1, P02751
[5] = variants of: B2; conditions: with co4a2_human COL4A2, P08572
Chain of co4a2_human COL4A2, P08572 (P08572 whole entry): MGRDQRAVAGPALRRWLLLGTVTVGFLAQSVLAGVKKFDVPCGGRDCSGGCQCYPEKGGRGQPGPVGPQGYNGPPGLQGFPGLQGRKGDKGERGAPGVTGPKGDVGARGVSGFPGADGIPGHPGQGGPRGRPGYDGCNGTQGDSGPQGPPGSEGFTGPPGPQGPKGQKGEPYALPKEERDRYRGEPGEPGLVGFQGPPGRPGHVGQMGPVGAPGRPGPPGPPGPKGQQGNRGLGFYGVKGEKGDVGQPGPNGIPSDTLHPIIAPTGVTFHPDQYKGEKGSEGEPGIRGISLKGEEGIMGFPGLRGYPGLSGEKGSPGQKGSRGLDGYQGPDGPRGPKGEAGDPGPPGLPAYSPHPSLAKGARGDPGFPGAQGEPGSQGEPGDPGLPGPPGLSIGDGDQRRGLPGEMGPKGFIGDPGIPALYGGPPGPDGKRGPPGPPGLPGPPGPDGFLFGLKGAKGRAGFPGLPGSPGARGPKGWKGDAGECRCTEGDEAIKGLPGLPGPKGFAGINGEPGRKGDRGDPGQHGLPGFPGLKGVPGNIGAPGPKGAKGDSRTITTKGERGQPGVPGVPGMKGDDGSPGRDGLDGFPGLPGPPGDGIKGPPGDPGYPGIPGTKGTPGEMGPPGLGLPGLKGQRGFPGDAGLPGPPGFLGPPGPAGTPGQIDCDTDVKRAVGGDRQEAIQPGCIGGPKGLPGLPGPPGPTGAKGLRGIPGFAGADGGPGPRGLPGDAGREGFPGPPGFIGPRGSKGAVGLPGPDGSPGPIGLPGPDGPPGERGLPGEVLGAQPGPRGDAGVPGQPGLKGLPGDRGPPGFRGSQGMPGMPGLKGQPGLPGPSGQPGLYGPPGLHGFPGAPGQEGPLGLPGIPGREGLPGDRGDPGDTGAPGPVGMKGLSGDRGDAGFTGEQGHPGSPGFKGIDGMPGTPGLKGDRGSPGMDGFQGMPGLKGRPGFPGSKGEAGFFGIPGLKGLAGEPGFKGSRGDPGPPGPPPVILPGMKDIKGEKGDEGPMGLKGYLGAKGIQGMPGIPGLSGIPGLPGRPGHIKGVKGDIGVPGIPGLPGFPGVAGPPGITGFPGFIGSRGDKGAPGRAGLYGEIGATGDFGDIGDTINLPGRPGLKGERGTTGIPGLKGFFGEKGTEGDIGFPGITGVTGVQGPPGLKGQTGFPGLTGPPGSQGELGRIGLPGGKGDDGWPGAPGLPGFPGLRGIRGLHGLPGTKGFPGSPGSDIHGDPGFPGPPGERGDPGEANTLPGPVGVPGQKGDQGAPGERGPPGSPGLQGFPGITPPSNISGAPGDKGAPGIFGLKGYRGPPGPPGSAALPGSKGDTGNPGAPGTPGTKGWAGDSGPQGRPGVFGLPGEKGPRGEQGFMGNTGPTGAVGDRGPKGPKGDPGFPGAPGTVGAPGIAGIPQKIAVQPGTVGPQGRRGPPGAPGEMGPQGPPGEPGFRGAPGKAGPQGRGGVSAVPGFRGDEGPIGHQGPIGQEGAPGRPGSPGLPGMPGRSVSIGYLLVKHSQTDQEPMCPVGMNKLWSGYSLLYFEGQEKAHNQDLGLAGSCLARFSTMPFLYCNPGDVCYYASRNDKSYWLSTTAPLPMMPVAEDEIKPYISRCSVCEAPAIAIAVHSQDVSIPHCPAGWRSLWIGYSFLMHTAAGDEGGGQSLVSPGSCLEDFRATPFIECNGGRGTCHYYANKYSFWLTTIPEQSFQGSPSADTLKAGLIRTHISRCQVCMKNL

[6] = variants of: B2; conditions: with emil2_human EMILIN2, Q9BXX0
Chain of emil2_human EMILIN2, Q9BXX0 (Q9BXX0 whole entry): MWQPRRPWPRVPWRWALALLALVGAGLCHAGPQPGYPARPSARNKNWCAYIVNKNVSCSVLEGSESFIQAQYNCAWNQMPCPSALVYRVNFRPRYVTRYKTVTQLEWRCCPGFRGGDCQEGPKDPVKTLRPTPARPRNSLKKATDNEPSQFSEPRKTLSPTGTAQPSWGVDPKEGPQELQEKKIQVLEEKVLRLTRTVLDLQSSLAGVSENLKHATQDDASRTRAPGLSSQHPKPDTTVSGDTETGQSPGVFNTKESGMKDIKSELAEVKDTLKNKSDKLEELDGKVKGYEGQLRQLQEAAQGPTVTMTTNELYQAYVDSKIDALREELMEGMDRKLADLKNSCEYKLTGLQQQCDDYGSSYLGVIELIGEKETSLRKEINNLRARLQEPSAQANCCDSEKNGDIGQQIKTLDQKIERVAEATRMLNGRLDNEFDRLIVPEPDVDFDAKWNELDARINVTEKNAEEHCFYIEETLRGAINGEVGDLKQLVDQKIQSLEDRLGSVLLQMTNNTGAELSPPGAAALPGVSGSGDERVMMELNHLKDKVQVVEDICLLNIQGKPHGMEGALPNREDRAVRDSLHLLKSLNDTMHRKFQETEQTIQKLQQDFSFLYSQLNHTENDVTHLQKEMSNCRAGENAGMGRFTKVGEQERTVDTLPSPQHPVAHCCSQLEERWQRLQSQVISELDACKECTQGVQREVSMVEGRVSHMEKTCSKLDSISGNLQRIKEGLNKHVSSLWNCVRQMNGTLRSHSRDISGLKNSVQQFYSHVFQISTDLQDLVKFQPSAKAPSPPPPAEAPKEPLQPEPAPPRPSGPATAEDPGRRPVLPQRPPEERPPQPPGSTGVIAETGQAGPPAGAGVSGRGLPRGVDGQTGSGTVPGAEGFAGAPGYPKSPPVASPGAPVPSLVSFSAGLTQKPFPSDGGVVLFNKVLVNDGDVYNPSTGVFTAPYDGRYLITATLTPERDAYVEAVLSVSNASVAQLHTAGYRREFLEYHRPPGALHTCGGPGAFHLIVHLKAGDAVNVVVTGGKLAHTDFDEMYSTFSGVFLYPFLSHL

[7] = variants of: B2; conditions: with hmcn1_human HMCN1, Q96RW7
[8] = variants of: B2; conditions: with psg9_human PSG9, Q00887
Chain of psg9_human PSG9, Q00887 (Q00887 whole entry): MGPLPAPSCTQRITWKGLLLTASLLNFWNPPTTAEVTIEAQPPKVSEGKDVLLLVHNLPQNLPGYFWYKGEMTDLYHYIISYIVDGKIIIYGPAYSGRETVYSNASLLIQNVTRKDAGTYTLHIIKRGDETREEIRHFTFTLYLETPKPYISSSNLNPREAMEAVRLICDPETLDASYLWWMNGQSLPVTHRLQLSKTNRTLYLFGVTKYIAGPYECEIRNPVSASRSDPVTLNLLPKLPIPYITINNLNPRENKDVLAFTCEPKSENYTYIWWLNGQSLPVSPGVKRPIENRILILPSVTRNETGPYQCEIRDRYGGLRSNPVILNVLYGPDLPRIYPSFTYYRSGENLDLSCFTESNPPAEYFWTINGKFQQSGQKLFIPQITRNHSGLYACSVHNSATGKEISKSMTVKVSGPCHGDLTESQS

Measured: effect of a mutation on the interaction

MLRLYPGPMVTEAEGKGGPEMASLSSSVVPVSFISTLRESVLDPGVGGEGASDKQRSKLSLSHSMIPASKIHTELCLPAFFSPAGTQRRFQQPQHHLTLSIIHTAAR [A69S]
with no effect: [1]

MLRLYPGPMVTEAEGKGGPEMASLSSSVVPVSFISTLRESVLDPGVGGEGASDKQRSKLSLSHSMIPASKIHTELCLPAFFSPAGTQRRFQQPQHHLTLSIIHTAAR [A69S]
not listed: [1]
with no effect: all other assays above
